Columns and labels:
[1] = substrate: Nc1ccn([C@@H]2O[C@H](COP(=O)(O)O)[C@@H](O)[C@H]2O)c(=O)n1; experiment: phosphate release (phosphatase) assay, Michaelis-Menten fit; type: biochemical, Saccharomyces cerevisiae; details: 5 mM MgCl2; substrate range 0.001-9.5 mM
Excerpt: phosphate release (phosphatase) assay, Michaelis-Menten fit on Sdt1 | Kinetic characterization of Phm8 and Sdt1 toward their most preferred substrate CMP

[2] = substrate: Nc1ccn([C@@H]2O[C@H](COP(=O)(O)O)[C@@H](O)[C@H]2O)c(=O)n1; experiment: as above; type: biochemical, Saccharomyces cerevisiae; details: 5 mM MgCl2; substrate range 0.001-9.5 mM; remark: listed apart in the source
Excerpt: phosphate release (phosphatase) assay, Michaelis-Menten fit on Phm8 | Kinetic characterization of Phm8 and Sdt1 toward their most preferred substrate CMP

Row | Protein | Km [1] [µM] | kcat [1] [s⁻¹] | Km [2] [µM] | kcat [2] [s⁻¹]
1 | Sdt1 (Saccharomyces cerevisiae S288C) (protein) MTVEYTASDLATYQNEVNEQIAKNKAHLESLTHPGSKVTFPIDQDISATPQNPNLKVFFFDIDNCLYKSSTRIHDLMQQSILRFFQTHLKLSPEDAHVLNNSYYKEYGLAIRGLVMFHKVNALEYNRLVDDSLPLQDILKPDIPLRNMLLRLRQSGKIDKLWLFTNAYKNHAIRCLRLLGIADLFDGLTYCDYSRTDTLVCKPHVKAFEKAMKESGLARYENAYFIDDSGKNIETGIKLGMKTCIHLVENEVNEILGQTPEGAIVISDILELPHVVSDLF | 1700 ± 200 | 0.54 ± 0.02 |  | 
2 | Phm8 (Saccharomyces cerevisiae S288C) (protein) MTIAKDYRTIYRNQIKKQIRLNQEHLQSLTHLGSQINFEVDPPKLPDPDPARKVFFFDIDNTLYRKSTKVQLLMQQSLSNFFKYELGFDDDEAERLIESYYQEYGLSVKGLIKNKQIDDVLQYNTFIDDSLPLQDYLKPDWKLRELLINLKKKKLGKFDKLWLFTNSYKNHAIRCVKILGIADLFDGITYCHYDRPIEEEFICKPDPKFFETAKLQSGLSSFANAWFIDDNESNVRSALSMGMGHVIHLIEDYQYESENIVTKDHKNKQQFSILKDILEIPLIMDVEVYRPSSIAIKEMEELEEEGEAVNWSNQQINVQSS |  |  | 63 ± 2 | 19.8 ± 0.1

From PMC4039369, “Nucleotide degradation and ribose salvage in yeast” (Molecular Systems Biology, 2013)
